Laboratory results taken from patent US20240279350A1 (Sanofi, published 2024).

B1: MC1 (masked mAb1 comprising MM1 and CL1) (antibody, human IgG2, kappa)
heavy: QVQLVQSGAEVKKPGASVKVSCKASGYTFTGKYMHWVRQAPGQGLEWMGWINPDSGGTNYAQKFQGRVTMTRDTSIATAYMELNRLRSDDTAVYYCARDQPLGYCTNGVCSYFDYWGQGTLVTVSSASTKGPSVFPLAPCSRSTSESTAALGCLVKDYFPEPVTVSWNSGALTSGVHTFPAVLQSSGLYSLSSVVTVPSSNFGTQTYTCNVDHKPSNTKVDKTVERKCCVECPPCPAPPVAGPSVFLFPPKPKDTLMISRTPEVTCVVVDVSHEDPEVQFNWYVDGVEVHNAKTKPREEQFNSTFRVVSVLTVVHQDWLNGKEYKCKVSNKGLPAPIEKTISKTKGQPREPQVYTLPPSREEMTKNQVSLTCLVKGFYPSDIAVEWESNGQPENNYKTTPPMLDSDGSFFLYSKLTVDKSRWQQGNVFSCSVMHEALHNHYTQKSLSLSPGK
light: EDEPGIRCYYNDDTCQYGGGPLGLAGSGGSDIQMTQSPSSVSASVGDRVTITCRASQGIYSWLAWYQQKPGKAPNLLIYTASTLQSGVPSRFSGSGSGTDFTLTISSLQPEDFATYYCQQANIFPLTFGGGTKVEIKRTVAAPSVFIFPPSDEQLKSGTASVVCLLNNFYPREAKVQWKVDNALQSGNSQESVTEQDSKDSTYSLSSTLTLSKADYEKHKVYACEVTHQGLSSPVTKSFNRGEC
notes: Conditionally-active (masked) antibody
B2: MC2 (masked mAb1 comprising MM2 and CL1) (antibody, human IgG2, kappa)
heavy: QVQLVQSGAEVKKPGASVKVSCKASGYTFTGKYMHWVRQAPGQGLEWMGWINPDSGGTNYAQKFQGRVTMTRDTSIATAYMELNRLRSDDTAVYYCARDQPLGYCTNGVCSYFDYWGQGTLVTVSSASTKGPSVFPLAPCSRSTSESTAALGCLVKDYFPEPVTVSWNSGALTSGVHTFPAVLQSSGLYSLSSVVTVPSSNFGTQTYTCNVDHKPSNTKVDKTVERKCCVECPPCPAPPVAGPSVFLFPPKPKDTLMISRTPEVTCVVVDVSHEDPEVQFNWYVDGVEVHNAKTKPREEQFNSTFRVVSVLTVVHQDWLNGKEYKCKVSNKGLPAPIEKTISKTKGQPREPQVYTLPPSREEMTKNQVSLTCLVKGFYPSDIAVEWESNGQPENNYKTTPPMLDSDGSFFLYSKLTVDKSRWQQGNVFSCSVMHEALHNHYTQKSLSLSPGK
light: EVGSYYVCPVRFQYFCEEGGGPLGLAGSGGSDIQMTQSPSSVSASVGDRVTITCRASQGIYSWLAWYQQKPGKAPNLLIYTASTLQSGVPSRFSGSGSGTDFTLTISSLQPEDFATYYCQQANIFPLTFGGGTKVEIKRTVAAPSVFIFPPSDEQLKSGTASVVCLLNNFYPREAKVQWKVDNALQSGNSQESVTEQDSKDSTYSLSSTLTLSKADYEKHKVYACEVTHQGLSSPVTKSFNRGEC
notes: as for B1
B3: MMP9-activated (MC1/MC2) (antibody, not shown: small tags and cut ends)
heavy: QVQLVQSGAEVKKPGASVKVSCKASGYTFTGKYMHWVRQAPGQGLEWMGWINPDSGGTNYAQKFQGRVTMTRDTSIATAYMELNRLRSDDTAVYYCARDQPLGYCTNGVCSYFDYWGQGTLVTVSSASTKGPSVFPLAPCSRSTSESTAALGCLVKDYFPEPVTVSWNSGALTSGVHTFPAVLQSSGLYSLSSVVTVPSSNFGTQTYTCNVDHKPSNTKVDKTVERKCCVECPPCPAPPVAGPSVFLFPPKPKDTLMISRTPEVTCVVVDVSHEDPEVQFNWYVDGVEVHNAKTKPREEQFNSTFRVVSVLTVVHQDWLNGKEYKCKVSNKGLPAPIEKTISKTKGQPREPQVYTLPPSREEMTKNQVSLTCLVKGFYPSDIAVEWESNGQPENNYKTTPPMLDSDGSFFLYSKLTVDKSRWQQGNVFSCSVMHEALHNHYTQKSLSLSPGK
light: DIQMTQSPSSVSASVGDRVTITCRASQGIYSWLAWYQQKPGKAPNLLIYTASTLQSGVPSRFSGSGSGTDFTLTISSLQPEDFATYYCQQANIFPLTFGGGTKVEIKRTVAAPSVFIFPPSDEQLKSGTASVVCLLNNFYPREAKVQWKVDNALQSGNSQESVTEQDSKDSTYSLSSTLTLSKADYEKHKVYACEVTHQGLSSPVTKSFNRGEC
B4: uPA-activated (MC3/MC4) (antibody, not shown: small tags and cut ends)
heavy: QVQLVQSGAEVKKPGASVKVSCKASGYTFTGKYMHWVRQAPGQGLEWMGWINPDSGGTNYAQKFQGRVTMTRDTSIATAYMELNRLRSDDTAVYYCARDQPLGYCTNGVCSYFDYWGQGTLVTVSSASTKGPSVFPLAPCSRSTSESTAALGCLVKDYFPEPVTVSWNSGALTSGVHTFPAVLQSSGLYSLSSVVTVPSSNFGTQTYTCNVDHKPSNTKVDKTVERKCCVECPPCPAPPVAGPSVFLFPPKPKDTLMISRTPEVTCVVVDVSHEDPEVQFNWYVDGVEVHNAKTKPREEQFNSTFRVVSVLTVVHQDWLNGKEYKCKVSNKGLPAPIEKTISKTKGQPREPQVYTLPPSREEMTKNQVSLTCLVKGFYPSDIAVEWESNGQPENNYKTTPPMLDSDGSFFLYSKLTVDKSRWQQGNVFSCSVMHEALHNHYTQKSLSLSPGK
light: DIQMTQSPSSVSASVGDRVTITCRASQGIYSWLAWYQQKPGKAPNLLIYTASTLQSGVPSRFSGSGSGTDFTLTISSLQPEDFATYYCQQANIFPLTFGGGTKVEIKRTVAAPSVFIFPPSDEQLKSGTASVVCLLNNFYPREAKVQWKVDNALQSGNSQESVTEQDSKDSTYSLSSTLTLSKADYEKHKVYACEVTHQGLSSPVTKSFNRGEC
notes: Masked compound with CL2 (MC3 or MC4, printed 'MC3/MC4') after cleavage of the masking moiety by recombinant human uPA

Assays:
[1] = target: T1, human CD40 on cells (human, UniProt P25942 21-277); assay: cell-based or functional assay
T1 sequence (P25942 21-277 limits assumed): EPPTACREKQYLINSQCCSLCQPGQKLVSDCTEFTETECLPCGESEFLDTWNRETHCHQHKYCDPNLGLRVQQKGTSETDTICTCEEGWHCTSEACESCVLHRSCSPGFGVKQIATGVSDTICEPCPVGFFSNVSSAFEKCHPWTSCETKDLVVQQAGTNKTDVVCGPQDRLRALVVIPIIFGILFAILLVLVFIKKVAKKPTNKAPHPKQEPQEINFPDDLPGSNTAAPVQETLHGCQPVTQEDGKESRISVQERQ

[2] = target: T1, human CD40 on cells; assay: cell-based or functional assay; remark: listed apart in the source
[3] = target: T1, human CD40 on cells; assay: cell-based or functional assay; remark: listed apart in the source
[4] = target: T1, human CD40 on cells; assay: cell-based or functional assay; remark: listed apart in the source
[5] = target: T1, human CD40 on cells; assay: flow cytometry on Raji cells
Experimental: (§1) Briefly, Raji cells were seeded in 96-well plates at 1.0×10⁵ cells/well and incubated with serially-diluted test antibodies for 60 minutes at 4° C. in 2% FBS/dPBS buffer. The cells were then washed twice with dPBS and further incubated with secondary allophycocyanin (APC)-conjugated AffiniPure F(ab′)₂ fragment donkey anti-human IgG (H+L) antibody (Jackson ImmunoResearch, Ref. 709-136-149) (1:500) for 30 minutes at 4° C. Finally, the cells were washed twice with dPBS and suspended in FACS buffer for flow cytometry analysis. MFI values vs concentrations were analyzed by FlowJo and data were further fitted with four-parameter non-linear regression to get EC₅₀ values by GraphPad Prism software.

[6] = target: T1, human CD40 on cells; assay: flow cytometry on U-2 OS/NFκB cells
Experimental: as §1, with “cultured U-2 OS/NFκB” for “Raji”

[7] = target: T1, human CD40 on cells; assay: flow cytometry on Raji cells; EC50 relative to mAb1
Experimental: as §1

[8] = target: T1, human CD40 on cells; assay: flow cytometry on U-2 OS/NFκB cells; EC50 relative to mAb1
Experimental: as §1, with “cultured U-2 OS/NFκB” for “Raji”

Binder | EC50, luciferase reporter assay in U-2 OS/NFκB cells [1] | Relative masking efficacy, luciferase reporter assay in U-2 OS/NFκB cells [1] | EC50, CD86 expression, primary human B-cell activation assay [2] | Relative masking efficacy, CD86 expression, primary human B-cell activation assay [2] | EC50, CD83 expression, B-cells of hCD40 KI mice [3] | EC50, CD86 expression, B-cells of hCD40 KI mice [3] | Relative masking efficacy, CD83 expression, B-cells of hCD40 KI mice [3] | Relative masking efficacy, CD86 expression, B-cells of hCD40 KI mice [3] | EC50, CD83 expression, MoDC maturation assay [4] | EC50, IL-8 release, MoDC maturation assay [4] | EC50 [5] | EC50 [6] | Relative masking efficacy [7] | Relative masking efficacy [8]
B1 | 179 nM | 753 fold | 40.3 nM | 231 fold | 6.7 nM | 3.57 nM | 131 fold | 115 fold | 56.5 nM | 19.5 nM | 476 nM | 330 nM | 355 fold | 220 fold
B2 | 113 nM | 477 fold | 28.5 nM | 176 fold | 2.31 nM | 1.46 nM | 45.2 fold | 47.2 fold | 33.1 nM | 15.1 nM | 488 nM | 317 nM | 364 fold | 211 fold
B3 | 0.261 nM | 1.1 fold | 0.114 nM | 0.65 fold |  |  |  |  |  |  | 1.46 nM | 1.94 nM | 1.1 fold | 1.3 fold
B4 | 0.362 nM | 1.5 fold | 0.134 nM | 0.77 fold |  |  |  |  |  |  | 2.01 nM | 2.52 nM | 1.5 fold | 1.7 fold
